Test results published in paper PMC6821195, “The internal interaction in RBBP5 regulates assembly and activity of MLL1 methyltransferase complex” (Nucleic Acids Research, 2019).
Changes are numbered by the printed parent chain. Names and notes keep the numbering of the source. Like-named read-outs stand apart in the source and are kept apart here.

T1: RBBP5 WD40 propeller (residues 2–333), Q15291
T1 chain: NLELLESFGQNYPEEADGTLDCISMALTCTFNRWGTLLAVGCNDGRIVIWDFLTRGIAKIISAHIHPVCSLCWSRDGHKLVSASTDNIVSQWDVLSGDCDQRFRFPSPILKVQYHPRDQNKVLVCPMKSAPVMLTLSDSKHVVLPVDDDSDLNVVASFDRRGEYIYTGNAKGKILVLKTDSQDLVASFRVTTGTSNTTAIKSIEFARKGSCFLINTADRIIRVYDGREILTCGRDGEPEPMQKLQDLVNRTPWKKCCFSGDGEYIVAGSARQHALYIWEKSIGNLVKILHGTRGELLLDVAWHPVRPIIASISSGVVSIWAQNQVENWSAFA

B1: RBBP5_(390–480d) (C-terminal distal region 390–480 with the 422–443 loop deletion) (domain or fragment, human, UniProt Q15291 390-480, looked up)
chain: DEELEDSKALLYLPIAPEVEDPEENPYGPPPDGSQPPKKKPKTTNIELQGVPNDEVHPLLGVKGDGKSK
notes: RBBP5, human, residues 390-480 with the loop 422-443 deleted; also called RBBP5_(CTDM); C-Terminal Distal Minimized; source: Rosetta cells, purified (Ni-NTA, on-beads Ulp1 digestion, SEC)
B2: RBBP5390-480d I457/L459A (protein)
chain: B1 chain with I46A, L48A
B3: RBBP5_(390–480d) (C-terminal distal region 390–480 with the 422–443 loop deletion), Q15291 L399A; L400A; I457A; L459A (protein)
chain: B1 chain with L10A, L11A, I46A, L48A
B4: RBBP5_(CTDM) (RBBP5_(390–480d)) L399A (domain or fragment, human, UniProt Q15291 390-480, looked up)
chain: B1 chain with L10A
notes: RBBP5, human, residues 390-480 with the loop 422-443 deleted, L399A; source: Rosetta cells, purified (Ni-NTA, on-beads Ulp1 digestion, SEC)
B5: RBBP5_(CTDM) (RBBP5_(390–480d)) I457A (domain or fragment, human, UniProt Q15291 390-480, looked up)
chain: B1 chain with I46A
notes: RBBP5, human, residues 390-480 with the loop 422-443 deleted, I457A; source: Rosetta cells, purified (Ni-NTA, on-beads Ulp1 digestion, SEC)
B6: RBBP5_(CTDM) (RBBP5_(390–480d)) L459A (domain or fragment, human, UniProt Q15291 390-480, looked up)
chain: B1 chain with L48A
notes: RBBP5, human, residues 390-480 with the loop 422-443 deleted, L459A; source: Rosetta cells, purified (Ni-NTA, on-beads Ulp1 digestion, SEC)
B7: RBBP5_(CTDM) (RBBP5_(390–480d)) L400A (domain or fragment, human, UniProt Q15291 390-480, looked up)
chain: B1 chain with L11A
notes: RBBP5, human, residues 390-480 with the loop 422-443 deleted, L400A; source: Rosetta cells, purified (Ni-NTA, on-beads Ulp1 digestion, SEC)
B8: RBBP5_(CTDM) (RBBP5_(390–480d)) L470A (domain or fragment, human, UniProt Q15291 390-480, looked up)
chain: B1 chain with L59A
notes: RBBP5, human, residues 390-480 with the loop 422-443 deleted, L470A; source: Rosetta cells, purified (Ni-NTA, on-beads Ulp1 digestion, SEC)
B9: RBBP5 404-538 (protein)
chain: IAPEVEDPEENPYGPPPDAVQTSLMDEGASSEKKRQSSADGSQPPKKKPKTTNIELQGVPNDEVHPLLGVKGDGKSKKKQAGRPKGSKGKEKDSPFKPKLYKGDRGLPLEGSAKGKVQAELSQPLTAGGAISELL
B10: RBBP5 C-terminal construct (390–480) (domain or fragment, human, UniProt Q15291 390-480, looked up)
chain: DEELEDSKALLYLPIAPEVEDPEENPYGPPPDAVQTSLMDEGASSEKKRQSSADGSQPPKKKPKTTNIELQGVPNDEVHPLLGVKGDGKSK
notes: RBBP5, human, residues 390-480; also called RBBP5_(390–480); source: Rosetta cells, purified (Ni-NTA, on-beads Ulp1 digestion, SEC)
B11: RBBP5 C-terminal distal region (residues 381–538) (domain or fragment, human, UniProt Q15291 381-538, looked up)
chain: DPIAAFCSSDEELEDSKALLYLPIAPEVEDPEENPYGPPPDAVQTSLMDEGASSEKKRQSSADGSQPPKKKPKTTNIELQGVPNDEVHPLLGVKGDGKSKKKQAGRPKGSKGKEKDSPFKPKLYKGDRGLPLEGSAKGKVQAELSQPLTAGGAISELL
notes: also called RBBP5CTD; source: Rosetta cells, purified (Ni-NTA, on-beads Ulp1 digestion, SEC)
B12: RBBP5 390-474 (protein)
chain: DEELEDSKALLYLPIAPEVEDPEENPYGPPPDAVQTSLMDEGASSEKKRQSSADGSQPPKKKPKTTNIELQGVPNDEVHPLLGVK
B13: RBBP5 381-480 (protein)
chain: DPIAAFCSSDEELEDSKALLYLPIAPEVEDPEENPYGPPPDAVQTSLMDEGASSEKKRQSSADGSQPPKKKPKTTNIELQGVPNDEVHPLLGVKGDGKSK
B14: RBBP5 WD40 propeller (residues 2–333) (domain or fragment)
chain: T1 chain
B15: RBBP5 390-467 (protein)
chain: DEELEDSKALLYLPIAPEVEDPEENPYGPPPDAVQTSLMDEGASSEKKRQSSADGSQPPKKKPKTTNIELQGVPNDEV
B16: RBBP5_(393–480) construct (domain or fragment, human, UniProt Q15291 393-480, looked up)
chain: LEDSKALLYLPIAPEVEDPEENPYGPPPDAVQTSLMDEGASSEKKRQSSADGSQPPKKKPKTTNIELQGVPNDEVHPLLGVKGDGKSK
notes: RBBP5, human, residues 393-480; source: Rosetta cells, purified (Ni-NTA, on-beads Ulp1 digestion, SEC)

Tests used:
[1] = system: RBBP5 2-325 (Homo sapiens); test: fluorescence polarization; conditions: FP: 20 mM HEPES pH 7.4, 150 mM NaCl, 0.1% BSA, 0.1 uM DNA, 25 C, 30 min; EMSA: 20 mM Tris-HCl pH 8.0, 150 mM NaCl, 10% glycerol, 0.1 uM nucleosome, on ice 1 h …
[2] = system: RBBP5 CTD3 (Homo sapiens); test: fluorescence polarization; conditions: FP: 20 mM HEPES pH 7.4, 150 mM NaCl, 0.1% BSA, 0.1 uM DNA, 25 C, 30 min; EMSA: 20 mM Tris-HCl pH 8.0, 150 mM NaCl, 10% glycerol, 0.1 uM nucleosome, on ice 1 h …
[3] = system: RBBP5 full-length (Homo sapiens); test: fluorescence polarization; conditions: FP: 20 mM HEPES pH 7.4, 150 mM NaCl, 0.1% BSA, 0.1 uM DNA, 25 C, 30 min; EMSA: 20 mM Tris-HCl pH 8.0, 150 mM NaCl, 10% glycerol, 0.1 uM nucleosome, on ice 1 h …
[4] = biological target: T2, RBBP5 WD40 propeller (residues 2–333) (human, UniProt Q15291 2-333); test: ITC; RBBP5 C-terminal constructs, RBBP5_(390–480d) or its mutants (1 mM) injected into 0.1 mM RBBP5_(2–333); 300 mM NaCl, 25 mM Tris–HCl pH 8.0; 20°C; one-site model; conditions: both partners purified
T2 construct: source: Rosetta cells, purified (Ni-NTA, on-beads Ulp1 digestion, SEC)

[5] = biological target: T3, RBBP5 WD40 propeller with residues 10–325 (RBBP5_(10–325)) (human, UniProt Q15291 10-325, selenomethionine (Se-Met derivative protein)); test: crystal structure; RBBP5_(10–325) and RBBP5_(390–480d) mixed at 1:2 and purified by SEC; crystals in 0.1 M HEPES-Na pH 7.5, 2% PEG 400, 2.0 M ammonium sulfate, 16°C; Se-Met SAD, 1.8 Å; conditions: both partners purified
T3 construct: RBBP5, human, residues 10-325 (WD40 propeller); native and Se-Met complexes were both crystallised; the solved dataset is of the Se-Met crystal; also called SeMet RBBP5_(10–325); source: Rosetta cells (Se-Met derivative grown in M9 minimal media), purified (Ni-NTA, on-beads Ulp1 digestion, SEC)

[6] = biological target: B14; test: ITC
[7] = biological target: T1, RBBP5 WD40 propeller (residues 2–333), …; test: ITC; conditions: chain shown with the change; 25mM Tris–HCl, 300 mM NaCl, pH 8.0
[8] = biological target: B14; test: ITC
[9] = biological target: B14; test: ITC; 300 mM NaCl
[10] = biological target: T2, RBBP5 WD40 propeller (residues 2–333); test: ITC; RBBP5_(381–538) (1 mM) titrated into 0.1 mM RBBP5_(2–333); 150 mM NaCl, 25 mM Tris–HCl pH 8.0 (300 and 800 mM NaCl also tested); 20°C; one-site model; conditions: both partners purified
[11] = biological target: B14; test: ITC; 800 mM NaCl
[12] = biological target: T4, RBBP5_(390–480d) (C-terminal distal region 390–480 with the 422–443 loop deletion) (human, UniProt Q15291 390-480, 422–443 loop deletion); test: ITC
[13] = biological target: T4, RBBP5_(390–480d) (C-terminal distal …); test: ITC; remark: listed apart in the source

Molecule: FAM-labelled 167-bp dsDNA
- Kd [1]: 35.1 µM
- Kd [2]: 13.3 µM
- Kd [3]: 11.5 µM

Molecule: B1
- binding result [4]: binds
- binding result [5]: binds

Molecule: B2
- Kd [6]: 108 µM

Molecule: B3
- Kd [7]: 369 µM

Molecule: B4
- Kd [4]: ~70 µM
- fold decrease in affinity against wild-type RBBP5_(CTDM) [4]: ~13 fold

Molecule: B5
- binding result [4]: binds

Molecule: B6
- binding result [4]: binds

Molecule: B7
- Kd [4]: ~70 µM
- fold decrease in affinity against wild-type RBBP5_(CTDM) [4]: ~13 fold

Molecule: B8
- Kd [7]: 19.1 µM
- binding result [4]: binds

Molecule: B9
- Kd [8]: 59.8 µM

Molecule: B10
- binding result [4]: binds
- Kd [8]: 7.5 µM

Molecule: B11
- Kd [9]: 9.7 µM
- Kd [10]: 6.8 µM
- Kd [8]: 9.7 µM
- Kd [11]: 24.6 µM

Molecule: B12
- Kd [8]: 11.7 µM

Molecule: B13
- Kd [8]: 9.6 µM

Molecule: B14
- Kd [12]: 5.2 µM
- Kd [13]: 4.3 µM

Molecule: B15
- Kd [8]: 17.3 µM

Molecule: B16
- binding result [4]: binds
- Kd [8]: 20.3 µM
